The values below are quoted from earlier work in publication PMC5538147.

This data set addresses UvrD (Escherichia coli) (UniProt P03018).

Regarding UvrD (from UniProt P03018), the Kd was 470 nM.

The term Kd denotes the concentration at which binding is half-saturated.
